For assay [1], the target named is Lhcb1,2 (major components of LHCII trimers). Briefly: native gel or EMSA; BN-PAGE of purified LHCII trimers (3 μg of Chl) solubilized in 0.3, 0.6 and 1% α-DDM. (In general: Mobility shift assays separate free from complexed probe on a gel.)
Assay [2] has the same target. Briefly: native gel or EMSA; BN-PAGE (4-12.5%) followed by Tricine-SDS PAGE (2D-PAGE), Coomassie; isolated thylakoids, 8 μg Chl, 0.5 mg/ml Chl in 25 mM BisTris/HCl pH 7.0, 20% glycerol, solubilized with 1% α-DDM (0.6 and 1.5% as controls); plants grown under GL200, GL600, GL1800 or shifted 0.5, 2, 6 h to GL1800.
Assay [3] has as its target Photosystem II core (C) (Arabidopsis thaliana (endogenous in leaf thylakoids)) (UniProt P83755). The assay is described as above.

A word on the stoichiometry N: it is a count of units in the complex or per binding partner.

Regarding “Lhcb1,2 (major components of LHCII trimers)”, the stoichiometry N in assay [1] and in assay [2] was 3 each time. In the case of “Photosystem II core (C) (from UniProt P83755 1-344; P56761 1-353; P56777 1-508; P56778 15-473; P23321 86-332) (complex)”, the stoichiometry N in assay [3] came to 2.
